Test results taken from IntAct's records for PubMed 20042240.

B1: Complement factor H-related protein 4 (Homo sapiens), Q92496-1 (parent)
chain: MLLLINVILTLWVSCANGQEVKPCDFPEIQHGGLYYKSLRRLYFPAAAGQSYSYYCDQNFVTPSGSYWDYIHCTQDGWSPTVPCLRTCSKSDVEIENGFISESSSIYILNEETQYNCKPGYATAEGNSSGSITCLQNGWSTQPICIKFCDMPVFENSRAKSNGMWFKLHDTLDYECYDGYESSYGNTTDSIVCGEDGWSHLPTCYNSSENCGPPPPISNGDTTSFPQKVYLPWSRVEYQCQSYYELQGSKYVTCSNGDWSEPPRCISMKPCEFPEIQHGHLYYENTRRPYFPVATGQSYSYYCDQNFVTPSGSYWDYIHCTQDGWLPTVPCLRTCSKSDIEIENGFISESSSIYILNKEIQYKCKPGYATADGNSSGSITCLQNGWSAQPICIKFCDMPVFENSRAKSNGMRFKLHDTLDYECYDGYEISYGNTTGSIVCGEDGWSHFPTCYNSSEKCGPPPPISNGDTTSFLLKVYVPQSRVEYQCQSYYELQGSNYVTCSNGEWSEPPRCIHPCIITEENMNKNNIQLKGKSDIKYYAKTGDTIEFMCKLGYNANTSVLSFQAVCREGIVEYPRCE
partner: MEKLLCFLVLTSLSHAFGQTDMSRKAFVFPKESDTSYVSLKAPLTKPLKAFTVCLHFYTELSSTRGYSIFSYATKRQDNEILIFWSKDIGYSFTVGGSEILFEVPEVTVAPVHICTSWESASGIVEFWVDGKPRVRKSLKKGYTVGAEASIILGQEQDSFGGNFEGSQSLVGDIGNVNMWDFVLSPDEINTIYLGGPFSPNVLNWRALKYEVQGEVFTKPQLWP
B2: Complement factor H (Homo sapiens), P08603 (parent)
chain: MRLLAKIICLMLWAICVAEDCNELPPRRNTEILTGSWSDQTYPEGTQAIYKCRPGYRSLGNVIMVCRKGEWVALNPLRKCQKRPCGHPGDTPFGTFTLTGGNVFEYGVKAVYTCNEGYQLLGEINYRECDTDGWTNDIPICEVVKCLPVTAPENGKIVSSAMEPDREYHFGQAVRFVCNSGYKIEGDEEMHCSDDGFWSKEKPKCVEISCKSPDVINGSPISQKIIYKENERFQYKCNMGYEYSERGDAVCTESGWRPLPSCEEKSCDNPYIPNGDYSPLRIKHRTGDEITYQCRNGFYPATRGNTAKCTSTGWIPAPRCTLKPCDYPDIKHGGLYHENMRRPYFPVAVGKYYSYYCDEHFETPSGSYWDHIHCTQDGWSPAVPCLRKCYFPYLENGYNQNYGRKFVQGKSIDVACHPGYALPKAQTTVTCMENGWSPTPRCIRVKTCSKSSIDIENGFISESQYTYALKEKAKYQCKLGYVTADGETSGSITCGKDGWSAQPTCIKSCDIPVFMNARTKNDFTWFKLNDTLDYECHDGYESNTGSTTGSIVCGYNGWSDLPICYERECELPKIDVHLVPDRKKDQYKVGEVLKFSCKPGFTIVGPNSVQCYHFGLSPDLPICKEQVQSCGPPPELLNGNVKEKTKEEYGHSEVVEYYCNPRFLMKGPNKIQCVDGEWTTLPVCIVEESTCGDIPELEHGWAQLSSPPYYYGDSVEFNCSESFTMIGHRSITCIHGVWTQLPQCVAIDKLKKCKSSNLIILEEHLKNKKEFDHNSNIRYRCRGKEGWIHTVCINGRWDPEVNCSMAQIQLCPPPPQIPNSHNMTTTLNYRDGEKVSVLCQENYLIQEGEEITCKDGRWQSIPLCVEKIPCSQPPQIEHGTINSSRSSQESYAHGTKLSYTCEGGFRISEENETTCYMGKWSSPPQCEGLPCKSPPEISHGVVAHMSDSYQYGEEVTYKCFEGFGIDGPAIAKCLGEKWSHPPSCIKTDCLSLPSFENAIPMGEKKDVYKAGEQVTYTCATYYKMDGASNVTCINSRWTGRPTCRDTSCVNPPTVQNAYIVSRQMSKYPSGERVRYQCRSPYEMFGDEEVMCLNGNWTEPPQCKDSTGKCGPPPPIDNGDITSFPLSVYAPASSVEYQCQNLYQLEGNKRITCRNGQWSEPPKCLHPCVISREIMENYNIALRWTAKQKLYSRTGESVEFVCKRGYRLSSRSHTLRTTCWDGKLEYPTCAKR
partner: B1 partner

Variants of: B1
Conditions: with crp_human CRP

Variant	effect of a mutation on the interaction
MLLLINVILTLWVSCANGQEVKPCDFPEIQHGGLYYKSARRLYFPAAAGQSYSYYCDQNFVTPSGSYWDYIHCTQDGWSPTVPCLRTCSKSDVEIENGFISESSSIYILNEETQYNCKPGYATAEGNSSGSITCLQNGWSTQPICIKFCDMPVFENSRAKSNGMWFKLHDTLDYECYDGYESSYGNTTDSIVCGEDGWSHLPTCYNSSENCGPPPPISNGDTTSFPQKVYLPWSRVEYQCQSYYELQGSKYVTCSNGDWSEPPRCISMKPCEFPEIQHGHLYYENTRRPYFPVATGQSYSYYCDQNFVTPSGSYWDYIHCTQDGWLPTVPCLRTCSKSDIEIENGFISESSSIYILNKEIQYKCKPGYATADGNSSGSITCLQNGWSAQPICIKFCDMPVFENSRAKSNGMRFKLHDTLDYECYDGYEISYGNTTGSIVCGEDGWSHFPTCYNSSEKCGPPPPISNGDTTSFLLKVYVPQSRVEYQCQSYYELQGSNYVTCSNGEWSEPPRCIHPCIITEENMNKNNIQLKGKSDIKYYAKTGDTIEFMCKLGYNANTSVLSFQAVCREGIVEYPRCE [L39A]	decreasing interaction strength
MLLLINVILTLWVSCANGQEVKPCDFPEIQHGGLYYKAARRLYFPAAAGQSYSYYCDQNFVTPSGSYWDYIHCTQDGWSPTVPCLRTCSKSDVEIENGFISESSSIYILNEETQYNCKPGYATAEGNSSGSITCLQNGWSTQPICIKFCDMPVFENSRAKSNGMWFKLHDTLDYECYDGYESSYGNTTDSIVCGEDGWSHLPTCYNSSENCGPPPPISNGDTTSFPQKVYLPWSRVEYQCQSYYELQGSKYVTCSNGDWSEPPRCISMKPCEFPEIQHGHLYYENTRRPYFPVATGQSYSYYCDQNFVTPSGSYWDYIHCTQDGWLPTVPCLRTCSKSDIEIENGFISESSSIYILNKEIQYKCKPGYATADGNSSGSITCLQNGWSAQPICIKFCDMPVFENSRAKSNGMRFKLHDTLDYECYDGYEISYGNTTGSIVCGEDGWSHFPTCYNSSEKCGPPPPISNGDTTSFLLKVYVPQSRVEYQCQSYYELQGSNYVTCSNGEWSEPPRCIHPCIITEENMNKNNIQLKGKSDIKYYAKTGDTIEFMCKLGYNANTSVLSFQAVCREGIVEYPRCE [S38A;L39A]	disrupting interaction strength
MLLLINVILTLWVSCANGQEVKPCDFPEIQHGGLYYKSLAALYFPAAAGQSYSYYCDQNFVTPSGSYWDYIHCTQDGWSPTVPCLRTCSKSDVEIENGFISESSSIYILNEETQYNCKPGYATAEGNSSGSITCLQNGWSTQPICIKFCDMPVFENSRAKSNGMWFKLHDTLDYECYDGYESSYGNTTDSIVCGEDGWSHLPTCYNSSENCGPPPPISNGDTTSFPQKVYLPWSRVEYQCQSYYELQGSKYVTCSNGDWSEPPRCISMKPCEFPEIQHGHLYYENTRRPYFPVATGQSYSYYCDQNFVTPSGSYWDYIHCTQDGWLPTVPCLRTCSKSDIEIENGFISESSSIYILNKEIQYKCKPGYATADGNSSGSITCLQNGWSAQPICIKFCDMPVFENSRAKSNGMRFKLHDTLDYECYDGYEISYGNTTGSIVCGEDGWSHFPTCYNSSEKCGPPPPISNGDTTSFLLKVYVPQSRVEYQCQSYYELQGSNYVTCSNGEWSEPPRCIHPCIITEENMNKNNIQLKGKSDIKYYAKTGDTIEFMCKLGYNANTSVLSFQAVCREGIVEYPRCE [R40A;R41A]	decreasing interaction strength

Variants of: B1
Conditions: with crp_human CRP
Remark: another data set of the same source

Variant	effect of a mutation on the interaction
MLLLINVILTLWVSCANGQEVKPCDFPEIQHGGLYYKSARRLYFPAAAGQSYSYYCDQNFVTPSGSYWDYIHCTQDGWSPTVPCLRTCSKSDVEIENGFISESSSIYILNEETQYNCKPGYATAEGNSSGSITCLQNGWSTQPICIKFCDMPVFENSRAKSNGMWFKLHDTLDYECYDGYESSYGNTTDSIVCGEDGWSHLPTCYNSSENCGPPPPISNGDTTSFPQKVYLPWSRVEYQCQSYYELQGSKYVTCSNGDWSEPPRCISMKPCEFPEIQHGHLYYENTRRPYFPVATGQSYSYYCDQNFVTPSGSYWDYIHCTQDGWLPTVPCLRTCSKSDIEIENGFISESSSIYILNKEIQYKCKPGYATADGNSSGSITCLQNGWSAQPICIKFCDMPVFENSRAKSNGMRFKLHDTLDYECYDGYEISYGNTTGSIVCGEDGWSHFPTCYNSSEKCGPPPPISNGDTTSFLLKVYVPQSRVEYQCQSYYELQGSNYVTCSNGEWSEPPRCIHPCIITEENMNKNNIQLKGKSDIKYYAKTGDTIEFMCKLGYNANTSVLSFQAVCREGIVEYPRCE [L39A]	with no effect
MLLLINVILTLWVSCANGQEVKPCDFPEIQHGGLYYKAARRLYFPAAAGQSYSYYCDQNFVTPSGSYWDYIHCTQDGWSPTVPCLRTCSKSDVEIENGFISESSSIYILNEETQYNCKPGYATAEGNSSGSITCLQNGWSTQPICIKFCDMPVFENSRAKSNGMWFKLHDTLDYECYDGYESSYGNTTDSIVCGEDGWSHLPTCYNSSENCGPPPPISNGDTTSFPQKVYLPWSRVEYQCQSYYELQGSKYVTCSNGDWSEPPRCISMKPCEFPEIQHGHLYYENTRRPYFPVATGQSYSYYCDQNFVTPSGSYWDYIHCTQDGWLPTVPCLRTCSKSDIEIENGFISESSSIYILNKEIQYKCKPGYATADGNSSGSITCLQNGWSAQPICIKFCDMPVFENSRAKSNGMRFKLHDTLDYECYDGYEISYGNTTGSIVCGEDGWSHFPTCYNSSEKCGPPPPISNGDTTSFLLKVYVPQSRVEYQCQSYYELQGSNYVTCSNGEWSEPPRCIHPCIITEENMNKNNIQLKGKSDIKYYAKTGDTIEFMCKLGYNANTSVLSFQAVCREGIVEYPRCE [S38A;L39A]	decreasing interaction strength
MLLLINVILTLWVSCANGQEVKPCDFPEIQHGGLYYKSLAALYFPAAAGQSYSYYCDQNFVTPSGSYWDYIHCTQDGWSPTVPCLRTCSKSDVEIENGFISESSSIYILNEETQYNCKPGYATAEGNSSGSITCLQNGWSTQPICIKFCDMPVFENSRAKSNGMWFKLHDTLDYECYDGYESSYGNTTDSIVCGEDGWSHLPTCYNSSENCGPPPPISNGDTTSFPQKVYLPWSRVEYQCQSYYELQGSKYVTCSNGDWSEPPRCISMKPCEFPEIQHGHLYYENTRRPYFPVATGQSYSYYCDQNFVTPSGSYWDYIHCTQDGWLPTVPCLRTCSKSDIEIENGFISESSSIYILNKEIQYKCKPGYATADGNSSGSITCLQNGWSAQPICIKFCDMPVFENSRAKSNGMRFKLHDTLDYECYDGYEISYGNTTGSIVCGEDGWSHFPTCYNSSEKCGPPPPISNGDTTSFLLKVYVPQSRVEYQCQSYYELQGSNYVTCSNGEWSEPPRCIHPCIITEENMNKNNIQLKGKSDIKYYAKTGDTIEFMCKLGYNANTSVLSFQAVCREGIVEYPRCE [R40A;R41A]	disrupting interaction strength

Variants of: B1
Conditions: with crp_human CRP
Remark: another data set of the same source

Variant	effect of a mutation on the interaction
MLLLINVILTLWVSCANGQEVKPCDFPEIQHGGLYYKSLRRLYFPAAAGQSYSYYCDQNFVTPSGSYWDYIHCTQDGWSPTVPCLRTCSKSDVEIENGFISESSSIYILNEETQYNCKPGYATAEGNSSGSITCLQNGWSTQPICIKFCDMPVFENSRAKSNGMWFKLHDTLDYECYDGYESSYGNTTDSIVCGEDGWSHLPTCYNSSENCGPPPPISNGDTTSFPQKVYLPWSRVEYQCQSYYELQGSKYVTCSNGDWSEPPRCISMKPCEFPEIQHGHLYYKNTRRPYFPVATGQSYSYYCDQNFVTPSGSYWDYIHCTQDGWLPTVPCLRTCSKSDIEIENGFISESSSIYILNKEIQYKCKPGYATADGNSSGSITCLQNGWSAQPICIKFCDMPVFENSRAKSNGMRFKLHDTLDYECYDGYEISYGNTTGSIVCGEDGWSHFPTCYNSSEKCGPPPPISNGDTTSFLLKVYVPQSRVEYQCQSYYELQGSNYVTCSNGEWSEPPRCIHPCIITEENMNKNNIQLKGKSDIKYYAKTGDTIEFMCKLGYNANTSVLSFQAVCREGIVEYPRCE [E284K]	increasing interaction strength

Variants of: B1
Conditions: with crp_human CRP
Remark: another data set of the same source

Variant	effect of a mutation on the interaction
MLLLINVILTLWVSCANGQEVKPCDFPEIQHGGLYYESLRRLYFPAAAGQSYSYYCDQNFVTPSGSYWDYIHCTQDGWSPTVPCLRTCSKSDVEIENGFISESSSIYILNEETQYNCKPGYATAEGNSSGSITCLQNGWSTQPICIKFCDMPVFENSRAKSNGMWFKLHDTLDYECYDGYESSYGNTTDSIVCGEDGWSHLPTCYNSSENCGPPPPISNGDTTSFPQKVYLPWSRVEYQCQSYYELQGSKYVTCSNGDWSEPPRCISMKPCEFPEIQHGHLYYENTRRPYFPVATGQSYSYYCDQNFVTPSGSYWDYIHCTQDGWLPTVPCLRTCSKSDIEIENGFISESSSIYILNKEIQYKCKPGYATADGNSSGSITCLQNGWSAQPICIKFCDMPVFENSRAKSNGMRFKLHDTLDYECYDGYEISYGNTTGSIVCGEDGWSHFPTCYNSSEKCGPPPPISNGDTTSFLLKVYVPQSRVEYQCQSYYELQGSNYVTCSNGEWSEPPRCIHPCIITEENMNKNNIQLKGKSDIKYYAKTGDTIEFMCKLGYNANTSVLSFQAVCREGIVEYPRCE [K37E]	decreasing interaction strength

Variants of: B2
Conditions: with crp_human CRP

Variant	effect of a mutation on the interaction
E338K	disrupting interaction strength
